The values that follow come from the RNAGym collection of RNA variant scans (doi:10.1073/pnas.2313332121).

B1: TPR t1 (parent)
chain: GACCAAUCUGCCCUCAGAGCUCGAGAACAUCUUCGGAUGCAGAGGAGGCAGGCUUCGGUGGCGCGAUAGCGCCAACGUCCUCAACCUCCAAUGCAUCCCACCACAUGAUGAUGCCUGAAGAGCCUUGGUUUUUUG

This series covers variants of B1. Description: polymerase ribozyme fitness, log enrichment relative to wild type (log ratio); higher = more active; in vitro selection for triplet polymerase activity. Put shortly:
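A single round of triplicate in vitro selection, including frozen incubation at −7 °C, was applied to PCR-built, transcribed mutant libraries of each subunit of a heterodimeric triplet polymerase ribozyme. Illumina sequencing of input and output libraries retained genotypes with ≥10 input reads and ≥1 read per output. Fitness is the base-2 logarithm of genotype enrichment divided by wild-type enrichment, from inverse-variance-weighted replicate averages.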
Take GACCAAUCUGCCCUCAGAGCUCGAGAACAUCUUCGGAUGCAGAGGAGGCAGGCUUCGGUGGUGCGAUAGCGCCAACGUCCUCAACCUCCAAUGCAUACCACCACAUGAUGAUGCCUGAAGAGCCUUGGUUUUUUG [C62U C97A]: the “polymerase ribozyme fitness (log ratio)” value was -5.14. Regarding GACCAAUCUGCCCUCAGAGCUCGAGAACAUCUUCGGAUGCAGAGGAGGCAGGCUUCGGUGGUGCGAUAGCGCAAACGUCCUCAACCUCCAAUGCAUCCCACCACAUGAUGAUACCUGAAGAGCCUUGGUUUUUUG [C62U C73A G113A], the “polymerase ribozyme fitness (log ratio)” value was -1.96.

For the variant GACCAAUCUGCCCUCAGAGCUCGAGAACAUCUUCGGAUGCAGAGGAGGCAGGCUUCGGUGGUGCGAUAGCGCCAACGUCUUCAACCUCCAAUGCAUUCCACCACAUGAUGAUGCCUGAAGAGCCUUGGUUUUUUG [C62U C80U C97U], the “polymerase ribozyme fitness (log ratio)” value is -0.921. For the variant GACCAAUCUGCCCUCAGAGCUCGAGAACAUCUUCGGAUGCAGAGGAGGCAGGCUUCGGUGGGGCGAUAGCGCCAACGUCCUUAACCUCCAAUGCAUCCCACCACAUGAUGAUGCCUCAAGAGCCUUGGUUUUUUG [C62G C82U G117C], the “polymerase ribozyme fitness (log ratio)” value is -5.97. The value for GACCAAUCUGCCCUCAGAGCUCGAGAACAUCUUCGGAUGCAGAGGAGGCAGGCUUCGGUGGUGCGAUAGCGCCAAGGUCCUCUACCUCGAAUGCAUCCCACCACAUGAUGAUGCCCGAAGAGCCUUGGUGUUUUG [C62U C76G A83U C89G U116C U130G] was -2.99; that for GACCAAUCUGCCCUCAGAGCUCGAGAACAUCUUCGGAUGCAGAGGAGGCAGGCUUCGGUGGUGCGAUAGCGCCAACGUCCUCAACCUCCAAUGCUUCCCACCACAUGAUGAUGUCUGAAGAGCCUUGGUUUUUUG [C62U A95U C114U] was -3.03; that for GACCAAUCUGCCCUCAGAGCUCGAGAACAUCUUCGGAUGCAGAGGAGGCAGGCUUCGGUGGUGCGAUAGCGCCAACGUCCUCAACCUCCAAUGCAUCACACCCCAUGAUGAUGCCUGAAGAGCCUUGGCUUUUUG [C62U C98A A103C U129C] was -6.12. Consider GACCAAUCUGCCCUCAGAGCUCGAGAACAUCUUCGGAUGCAGAGGAGGCAGGCUUCGGUGGUGCGAUAGCGCCAACGUCCUCGACCUCCAAUGCAUCCCACCACAUGAUGAUGCCUGAAGAGCCUUGGUUUUUUG [C62U A83G], for which the “polymerase ribozyme fitness (log ratio)” value is -1.18. Take GACCAAUCUGCCCUCAGAGCUCGAGAACAUCUUCGGAUGCAGAGGAGGCAGGCUUCGGUGGUGCGAUAGCGCCAACGUCCUCAACCUCCAAUGCAUCCCACCACAUGAUGCUGCCUGAAGAGCCUUGGUUUUUUG [C62U A111C]: the “polymerase ribozyme fitness (log ratio)” value worked out at 0.533. With GACCAAUCUGCCCUCAGAGCUCGAGAACAUCUUCGGAUGCAGAGGAGGCAGGCUUCGGUGGUGCGAUAGGGUCAACGUCCUCAACCUCCAAUGCAUCCCACCACAUGAUGAUGCCUGAAUAGCCUUGGUUUUUUG [C62U C70G C72U G120U], the “polymerase ribozyme fitness (log ratio)” value was -2.44. For GACCAAUCUGCCCUCAGAGCUCGAGAACAUCUUCGGAUGCAGAGGAGGCAGGCUUCGGUGGUGCGAUAGCGCCAACGUCCUCACCCUCCAAUGCAUCCCACCACAUGAUGAUGCCUGAAGAGCCUUGGUUUUUUG [C62U A84C], the “polymerase ribozyme fitness (log ratio)” value was -1.06. The value for GACCAAUCUGCCCUCAGAGCUCGAGAACAUCUUCGGAUGCAGAGGAGGCAGGCUUCGGUGGGGCGAUAGCGCCAACGUCCUCAACCUCCAAUGCAUCCCACCACACGAUGAUGCCUGAAGAGCCUUGGUUUUUUG [C62G U106C] was -2.05; that for GACCAAUCUGCCCUCAGAGCUCGAGAACAUCUUCGGAUGCAGAGGAGGCAGGCUUCGGUGGUGCGAUAGCGCCAACGUCCUCAACUUCCAAUGCAUCCCACCACAUGAUGAUGCCUGAAGAGCCUUGGUUUUUUG [C62U C86U] was -0.567. With GACCAAUCUGCCCUCAGAGCUCGAGAACAUCUUCGGAUGCAGAGGAGGCAGGCUUCGGUGGUGCGAUAGCGCCAACGUCCUCAACAUCCAAUGCAUCCCACCACAUGAUGAUGCCUGAAGAGCCUUGGUUUUUUG [C62U C86A], the “polymerase ribozyme fitness (log ratio)” value was -0.731. Consider GACCAAUCUGCCCUCAGAGCUCGAGAACAUCUUCGGAUGCAGAGGAGGCAGGCUUCGGUGGGGCGAUAGCGCCAACGUCCUCAACCUCCAAUGCAUCCCACCACAUGAUGAUGCCUGAAGAGCAUUGGUUUUUUG [C62G C124A], for which the “polymerase ribozyme fitness (log ratio)” value was -0.74.

GACCAAUCUGCCCUCAGAGCUCGAGAACAUCUUCGGAUGCAGAGGAGGCAGGCUUCGGUGGGGCGAUAGCGCCAACGUCCUCAACCUCCAAUGCAUCCCACCACAUGAUGAUGCCUGAAGAGCUUUGGUUUUUUG [C62G C124U]: the “polymerase ribozyme fitness (log ratio)” value amounted to 0.784. Regarding GACCAAUCUGCCCUCAGAGCUCGAGAACAUCUUCGGAUGCAGAGGAGGCAGGCUUCGGUGGGGCGAUAGCGCCAACGCCCUCAACCUCCAAUGCAUCCCACCACAUGAUGAUGCCUGAAGAGCCUUGGUUUUUUG [C62G U78C], the “polymerase ribozyme fitness (log ratio)” value was -1.87. As for GACCAAUCUGCCCUCAGAGCUCGAGAACAUCUUCGGAUGCAGAGGAGGCAGGCUUCGGUGGUGCGAUAGCGCCAACGUCCUCAACCUCUAAUGCAUCCCACCACAUGAUGAUGCCUGAAGAGCCUUGGUUUUUUG [C62U C89U], the “polymerase ribozyme fitness (log ratio)” value was -0.519. With GACCAAUCUGCCCUCAGAGCUCGAGAACAUCUUCGGAUGCAGAGGAGGCAGGCUUCGGUGGUGCGAUAGCGCCAACGUCCUCAACCUCCAAUGCAUCUCACCACAUGAUGUUGCCUGAACAGCCUUGGUUUUUUG [C62U C98U A111U G120C] the figure was -4.23; with GACCAAUCUGCCCUCAGAGCUCGAGAACAUCUUCGGAUGCAGAGGAGGCAGGCUUCGGUGGGGCGAUAGCGCCAACGUCCUCAACCUCCAAUGCAUCCCACCACAUGAUGAUGCCUGAUGAGCCUUGCUUUUUUG [C62G A119U G128C], -4.08. The value for GACCAAUCUGCCCUCAGAGCUCGAGAACAUCUUCGGAUGCAGAGGAGGCAGGCUUCGGUGGUGCGAUAGCGCCAACGUCCUCAACCUCCAAUGCAUGCCACCACAUGAUGAUGCCUGAAGAGCCUUGGUUUAUUG [C62U C97G U132A] was -3.9.
